In patent US20220283175A1 (ENCODIA, published 2022):
Values belong to the binder of their own block, whether it stands above or below them. No end group written: not given here. *: point of attachment. Benzoyl(4-SO2NH2) = NS(=O)(=O)c1ccc(C(=O)*)cc1; M65 = not defined here; M67 = not defined here; M75 = not defined here; M76 = not defined here; M88 = not defined here

Tests used:
Experiment in all cases: cell-based or functional assay
[1] = target: T1, wild-type human carbonic anhydrase II (hCAII) protein (human, UniProt P00918 4-259)
[2] = target: T1, wild-type human carbonic anhydrase II …; remark: listed apart in the source
[3] = target: T1, wild-type human carbonic anhydrase II …; remark: listed apart in the source

NTM-AAEIR IC50 (µM), colorimetric IC50 assay [1]: 0.515 µM
Binder: M65-AAEIR (not fully specified; printed as M65-AAEIR; reading uncertain) [M65-AAEIR]

NTM-AAEIR IC50 (µM), colorimetric IC50 assay [1]: 0.095 µM
Binder: M88-AAEIR (not fully specified; printed as M88-AAEIR; reading uncertain) [M88-AAEIR]

NTM-AAEIR IC50 (µM), colorimetric IC50 assay [1]: 0.067 µM
Binder: M75-AAEIR (not fully specified; printed as M75-AAEIR; reading uncertain) [M75-AAEIR]

IC50 (µM), hCAII functional assay [2]: 0.0484 µM
B1: (SAB)AAAAE (peptide)
peptide: {Benzoyl(4-SO2NH2)}-AAAAE-NH2
SMILES: C[C@H](NC(=O)c1ccc(S(N)(=O)=O)cc1)C(=O)N[C@@H](C)C(=O)N[C@@H](C)C(=O)N[C@@H](C)C(=O)N[C@@H](CCC(=O)O)C(N)=O

P2 dependence: fold difference of IC50 (SABA-AF against SABA-AA) [3]: ~4 fold
IC50 (µM), hCAII functional assay [2]: 0.183 µM
B2: (SAB)AFAAE (peptide)
peptide: {Benzoyl(4-SO2NH2)}-AFAAE-NH2
SMILES: C[C@H](NC(=O)c1ccc(S(N)(=O)=O)cc1)C(=O)N[C@@H](Cc1ccccc1)C(=O)N[C@@H](C)C(=O)N[C@@H](C)C(=O)N[C@@H](CCC(=O)O)C(N)=O

IC50 (µM), hCAII functional assay [2]: 0.153 µM
B3: (SAB)SAAAE (peptide)
peptide: {Benzoyl(4-SO2NH2)}-SAAAE-NH2
SMILES: C[C@H](NC(=O)[C@H](C)NC(=O)[C@H](CO)NC(=O)c1ccc(S(N)(=O)=O)cc1)C(=O)N[C@@H](C)C(=O)N[C@@H](CCC(=O)O)C(N)=O

IC50 (µM), hCAII functional assay [2]: 0.0993 µM
B4: (SAB)EAAAE (peptide)
peptide: {Benzoyl(4-SO2NH2)}-EAAAE-NH2
SMILES: C[C@H](NC(=O)[C@H](C)NC(=O)[C@H](CCC(=O)O)NC(=O)c1ccc(S(N)(=O)=O)cc1)C(=O)N[C@@H](C)C(=O)N[C@@H](CCC(=O)O)C(N)=O

IC50 (µM), hCAII functional assay [2]: 0.0284 µM
B5: (SAB)LAAAE (peptide)
peptide: {Benzoyl(4-SO2NH2)}-LAAAE-NH2
SMILES: CC(C)C[C@H](NC(=O)c1ccc(S(N)(=O)=O)cc1)C(=O)N[C@@H](C)C(=O)N[C@@H](C)C(=O)N[C@@H](C)C(=O)N[C@@H](CCC(=O)O)C(N)=O

IC50 (µM), hCAII functional assay [2]: 0.045 µM
B6: (SAB)FAAAE (peptide)
peptide: {Benzoyl(4-SO2NH2)}-FAAAE-NH2
SMILES: C[C@H](NC(=O)[C@H](C)NC(=O)[C@H](Cc1ccccc1)NC(=O)c1ccc(S(N)(=O)=O)cc1)C(=O)N[C@@H](C)C(=O)N[C@@H](CCC(=O)O)C(N)=O

IC50 (µM), hCAII functional assay [2]: 0.148 µM
B7: (SAB)HAAAE (peptide)
peptide: {Benzoyl(4-SO2NH2)}-HAAAE-NH2
SMILES: C[C@H](NC(=O)[C@H](C)NC(=O)[C@H](Cc1c[nH]cn1)NC(=O)c1ccc(S(N)(=O)=O)cc1)C(=O)N[C@@H](C)C(=O)N[C@@H](CCC(=O)O)C(N)=O

NTM-AAEIR IC50 (µM), colorimetric IC50 assay [1]: 0.077 µM
Binder: M76-AAEIR (not fully specified; printed as M76-AAEIR; reading uncertain) [M76-AAEIR]

NTM-AAEIR IC50 (µM), colorimetric IC50 assay [1]: 0.073 µM
Binder: M67-AAEIR (not fully specified; printed as M67-AAEIR; reading uncertain) [M67-AAEIR]
